pKd: −log10 of the molar value.

One assay concerns the target HLA-A*01:01. Description: IEDB peptide-MHC binding, purified MHC/competitive/fluorescence; filed as Kd, often an IC50 or EC50 that approximates it; ≥ and ≤ were set here for values at or beyond the usual limits of such assays. To be noted: source organism: Entamoeba dispar SAW760.
The next assay addresses HLA-A*11:01. The assay is described as above. To be noted: source organism: Entamoeba dispar SAW760.
For the next assay, the target named is HLA-A*30:01. The assay is described as above. To be noted: source organism: Entamoeba dispar SAW760.
A further assay addresses HLA-A*30:02. Described as above. The following applies: source organism: Entamoeba dispar SAW760.
The target of a further assay is HLA-A*66:01. Described as above. To be noted: source organism: Entamoeba dispar SAW760.
The next assay deals with HLA-B*07:02. The description is as above. The following applies: source organism: Entamoeba dispar SAW760.
The next assay has as its target HLA-B*08:01. The description is as above. The following applies: source organism: Entamoeba dispar SAW760.
The target in another assay is HLA-B*14:02. The description is as above. The following applies: source organism: Entamoeba dispar SAW760.
The target in the next assay is HLA-B*27:05. The assay is described as above. To be noted: source organism: Entamoeba dispar SAW760.
The target in a further assay is HLA-B*44:02. The assay is described as above. To be noted: source organism: Entamoeba dispar SAW760.
For the next assay, the target named is HLA-B*53:01. Described as above. To be noted: source organism: Entamoeba dispar SAW760.
For another assay, the target named is HLA-B*58:01. Described as above. The following applies: source organism: Entamoeba dispar SAW760.
The target of another assay is HLA-A*02:03. Briefly: IEDB peptide-MHC binding, purified MHC/direct/fluorescence; filed as Kd, often an IC50 or EC50 that approximates it; ≥ and ≤ were set here for values at or beyond the usual limits of such assays. To be noted: source organism: Campylobacter jejuni.
For the next assay, the target named is HLA-A*02:11. The assay is described as above. To be noted: source organism: Campylobacter jejuni.
A further assay concerns the target HLA-A*02:12. The description is as above. To be noted: source organism: Campylobacter jejuni.
The next assay concerns the target HLA-A*02:19. The description is as above. To be noted: source organism: Campylobacter jejuni.
Another assay has as its target HLA-A*03:01. Described as above. The following applies: source organism: Campylobacter jejuni.
Another assay has as its target HLA-A*25:01. The description is as above. To be noted: source organism: Campylobacter jejuni.
The next assay concerns the target HLA-A*26:01. The assay is described as above. To be noted: source organism: Campylobacter jejuni.
A further assay addresses HLA-A*80:01. The description is as above. The following applies: source organism: Campylobacter jejuni.
The next assay has as its target HLA-B*15:01. The description is as above. To be noted: source organism: Campylobacter jejuni.
In another assay the target is HLA-B*18:01. The assay is described as above. The following applies: source organism: Campylobacter jejuni.
A further assay addresses HLA-B*27:03. Described as above. The following applies: source organism: Campylobacter jejuni.
A further assay addresses HLA-B*39:01. The description is as above. The following applies: source organism: Campylobacter jejuni.
Another assay has as its target HLA-B*46:01. Described as above. The following applies: source organism: Campylobacter jejuni.
In a further assay the target is HLA-B*51:01. Described as above. The following applies: source organism: Campylobacter jejuni.
A further assay deals with HLA-B*57:01. The description is as above. To be noted: source organism: Campylobacter jejuni.
The target in the next assay is HLA-C*04:01. Described as above. To be noted: source organism: Campylobacter jejuni.

The pKd is −log10 of the Kd, conventionally taken in molar units. Lower therefore signals a high Kd. For SQYDPKELL, the pKd with HLA-A*01:01, with HLA-A*11:01, with HLA-A*30:01, with HLA-A*30:02, with HLA-A*66:01 and with HLA-B*07:02 was at most 5.30 each time. Moreover, the pKd in the assay with HLA-B*08:01, in the assay with HLA-B*14:02, with HLA-B*27:05, with HLA-B*44:02, with HLA-B*53:01 and with HLA-B*58:01 was at most 5.30 each time.

Turning to YWDQVTFFY, the pKd in the assay with HLA-A*02:03, with HLA-A*02:11, with HLA-A*02:12, in the assay with HLA-A*02:19, with HLA-A*03:01 and in the assay with HLA-A*25:01 was at most 4.70 throughout. Further, the pKd with HLA-A*26:01 was at most 4.70; with HLA-A*80:01 it was 7.25; with HLA-B*15:01 it was at most 4.70; in the assay with HLA-B*18:01 it was at most 4.70; with HLA-B*27:03 it was at most 4.70; with HLA-B*39:01 it was at most 4.70. Besides, the pKd in the assay with HLA-B*46:01, with HLA-B*51:01, in the assay with HLA-B*57:01 and with HLA-C*04:01 was at most 4.70 each time.

The values above are taken from the Immune Epitope Database (IEDB).
